Measurements published in US20250353921A1 (ASTRIA THERAPEUTICS, published 2025).

Tests used:
[1] = biological target: T1, human OX40 (TNFRSF4, CD134) on cells (human, UniProt P43489 29-277); test: flow cytometry on Jurkat-NF-κB-OX40 cells, detection with PE anti-human IgG Fc, occupancy in % of the saturating dose; in the presence of 0.07 µg/ml OX40L; time point not stated on the sheet
T1 construct: also called OX40 on HPB-ALL cells; Jurkat-NFκB-OX40 cells
T1 sequence: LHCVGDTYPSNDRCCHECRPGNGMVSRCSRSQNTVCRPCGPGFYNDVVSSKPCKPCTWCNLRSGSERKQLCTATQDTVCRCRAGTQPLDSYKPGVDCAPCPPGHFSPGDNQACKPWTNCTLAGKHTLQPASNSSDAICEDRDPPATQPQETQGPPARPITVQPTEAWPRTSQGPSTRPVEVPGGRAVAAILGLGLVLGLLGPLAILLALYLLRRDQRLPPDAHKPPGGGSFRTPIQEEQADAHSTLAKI

[2] = biological target: T1, human OX40 (TNFRSF4, CD134) on cells; test: flow cytometry on Jurkat-NF-κB-OX40 cells, detection with PE anti-human IgG Fc, occupancy in % of the saturating dose; no OX40L; time point (0 h or 5 h) not stated on the sheet
[3] = biological target: T1, human OX40 (TNFRSF4, CD134) on cells; test: cell-based or functional assay
[4] = biological target: T1, human OX40 (TNFRSF4, CD134) on cells; test: flow cytometry on Jurkat-NF-κB-OX40 cells, detection with PE anti-human IgG Fc, occupancy in % of the saturating dose; in the presence of 0.3 µg/ml OX40L; time point not stated on the sheet
[5] = biological target: T2, Human FcRn protein (Acro Biosystems, catalog NO: FCN-H52W7) (human, UniProt P55899 24-297; P61769 21-119); test: SPR Biacore 8K+, antibody immobilised, FcRn analyte, pH 6.0; pH 6.0
T2 construct: also called huFcRn
T2 sequence (P55899 24-297 limits assumed, chain 1 of 2): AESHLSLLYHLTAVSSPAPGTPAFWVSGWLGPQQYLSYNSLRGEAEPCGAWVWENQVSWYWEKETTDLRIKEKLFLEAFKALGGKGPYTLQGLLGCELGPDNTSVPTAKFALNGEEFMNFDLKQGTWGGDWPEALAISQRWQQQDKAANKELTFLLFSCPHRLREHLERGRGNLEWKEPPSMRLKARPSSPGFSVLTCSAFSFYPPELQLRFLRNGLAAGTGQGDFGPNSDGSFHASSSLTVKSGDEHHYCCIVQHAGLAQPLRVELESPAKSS
T2 sequence (P61769 21-119 limits assumed, chain 2 of 2): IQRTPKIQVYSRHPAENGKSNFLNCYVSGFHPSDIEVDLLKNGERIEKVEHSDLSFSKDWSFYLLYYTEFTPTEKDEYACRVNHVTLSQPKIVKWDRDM

[6] = biological target: Human CD64 (FcγRI), Sino Biological 10256-H08H (human, UniProt P12314 16-288); test: SPR Biacore 8K+, receptor captured by anti-His, antibody as analyte
Human CD64 (FcγRI), Sino Biological 10256-H08H, sequence (P12314 16-288 limits assumed): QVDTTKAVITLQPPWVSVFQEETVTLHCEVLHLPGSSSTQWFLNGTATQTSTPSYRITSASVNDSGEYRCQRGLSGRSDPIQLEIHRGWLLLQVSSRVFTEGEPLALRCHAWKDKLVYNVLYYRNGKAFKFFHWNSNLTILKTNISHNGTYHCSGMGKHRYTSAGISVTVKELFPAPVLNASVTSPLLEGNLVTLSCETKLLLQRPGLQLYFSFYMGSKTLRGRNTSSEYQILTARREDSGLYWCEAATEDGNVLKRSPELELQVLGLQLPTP

[7] = biological target: T3, Human CD32a (167 Arg), Sino Biological 10374-H08H (human, UniProt P12318 34-218); test: as above
T3 construct: also called FcγRIIa167R
T3 sequence (looked up): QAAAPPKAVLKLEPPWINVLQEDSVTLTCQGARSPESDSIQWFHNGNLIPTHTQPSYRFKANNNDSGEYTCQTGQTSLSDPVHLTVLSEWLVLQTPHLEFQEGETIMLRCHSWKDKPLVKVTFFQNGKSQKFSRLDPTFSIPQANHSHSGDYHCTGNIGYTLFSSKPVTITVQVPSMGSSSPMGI

[8] = biological target: T4, Human CD32a (167 His), Sino Biological 10374-H08H1 (human, UniProt P12318 34-218); test: as above
T4 construct: also called FcγRIIa167H
T4 sequence (looked up): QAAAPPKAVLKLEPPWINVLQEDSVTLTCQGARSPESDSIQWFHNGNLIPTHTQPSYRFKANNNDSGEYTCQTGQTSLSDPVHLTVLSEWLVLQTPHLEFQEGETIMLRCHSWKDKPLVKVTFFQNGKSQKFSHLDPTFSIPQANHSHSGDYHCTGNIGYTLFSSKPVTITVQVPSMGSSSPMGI

[9] = biological target: T5, Human CD16b (NA2 allotype), Sino Biological 11046-H08H (human, UniProt O75015 17-200); test: as above
T5 construct: also called FcγRIIIb
T5 sequence (O75015 17-200 N65S limits assumed): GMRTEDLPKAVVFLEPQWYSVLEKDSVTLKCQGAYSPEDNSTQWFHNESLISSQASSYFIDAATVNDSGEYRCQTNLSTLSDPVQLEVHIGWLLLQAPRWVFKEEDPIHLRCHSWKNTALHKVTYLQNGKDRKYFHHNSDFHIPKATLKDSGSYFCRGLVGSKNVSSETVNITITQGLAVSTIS

[10] = biological target: T6, Human CD16a (176F), Sino Biological 10389-H08H (human, UniProt P08637 17-208); test: as above
T6 construct: also called FcγRIIIa176F
T6 sequence (P08637 17-208 limits assumed): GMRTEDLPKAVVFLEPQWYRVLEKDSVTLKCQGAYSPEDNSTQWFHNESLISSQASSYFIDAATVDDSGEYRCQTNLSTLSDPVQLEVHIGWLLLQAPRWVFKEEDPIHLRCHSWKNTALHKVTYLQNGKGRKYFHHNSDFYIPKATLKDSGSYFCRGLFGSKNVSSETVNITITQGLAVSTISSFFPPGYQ

[11] = biological target: T7, Human CD32b, Sino Biological 10259-H08H (human, UniProt P31994 43-217); test: as above
T7 construct: also called FcγRIIb
T7 sequence (looked up): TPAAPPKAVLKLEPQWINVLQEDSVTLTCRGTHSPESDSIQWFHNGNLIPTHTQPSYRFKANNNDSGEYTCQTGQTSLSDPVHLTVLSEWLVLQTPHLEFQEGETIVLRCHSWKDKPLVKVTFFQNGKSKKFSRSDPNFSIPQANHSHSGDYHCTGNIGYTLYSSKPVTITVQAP

[12] = biological target: T8, Human CD16a (F176V), Sino Biological 10389-H08H1 (human, UniProt P08637 17-208); test: as above
T8 construct: also called FcγRIIIa176V
T8 sequence (P08637 17-208 F176V limits assumed): as the sequence (P08637 17-208 limits assumed) above, with F160V counted along it

[13] = biological target: T1, human OX40 (TNFRSF4, CD134) on cells; test: cell-based or functional assay; remark: listed apart in the source
[14] = biological target: T1, human OX40 (TNFRSF4, CD134) on cells; test: cell-based or functional assay; remark: listed apart in the source
[15] = biological target: T1, human OX40 (TNFRSF4, CD134) on cells; test: cell-based or functional assay; remark: listed apart in the source
[16] = biological target: T1, human OX40 (TNFRSF4, CD134) on cells; test: cell-based or functional assay; remark: listed apart in the source

B1: MAB1 IgG1 (antibody)
heavy: not shown
light: EIVLTQSPATLSLSPGERATLSCRASSSVSYMHWYQQKPGQAPRPWIYATSNRATGIPARFSGSGSGTDYTLTISSLEPEDFAVYYCQQFGAWPWTFGQGTKVEIKRTVAAPSVFIFPPSDEQLKSGTASVVCLLNNFYPREAKVQWKVDNALQSGNSQESVTEQDSKDSTYSLSSTLTLSKADYEKHKVYACEVTHQGLSSPVTKSFNRGEC
notes: Human IgG1, kappa
- EC50 (read off the curve) [1]: ~0.0002 µM
- EC50 (read off the curve) [2]: ~0.0002 µM
- ADCC EC50, activated T cells (LDH release) [3]: 0.00027 µM
- Fold diff to MAB10, ADCC EC50, activated T cells [3]: 0.37 fold
- EC50 (read off the curve) [4]: ~0.0002 µM
- Kd [5]: 0.102 µM
- Kd [6]: 0.0054 µM
- Kd [7]: 6.14 µM
- Kd [8]: 4.03 µM
- Kd [9]: 3.63 µM
- Kd [10]: 0.334 µM
- Kd [11]: 11.6 µM
- Kd [12]: 0.297 µM
- Fold diff to MAB10, maximum ADCC, regulatory T cells [13]: 2.27 fold
- Maximum killing (%), ADCC, regulatory T cells [13]: 61.9%
- ADCC EC50, regulatory T cells (LDH release) [14]: 0.00028 µM
- Fold diff to MAB10, ADCC EC50, regulatory T cells [14]: 8.25 fold
- EC50, inhibition of IFNγ release [15]: 0.0146 µM
- EC50, inhibition of IL-2 release [15]: 0.00236 µM
- EC50, inhibition of IL-4 release [15]: 0.00283 µM
- EC50, inhibition of IL-5 release [15]: 0.0213 µM
- EC50, inhibition of IL-8 release [15]: 0.00919 µM
- EC50, inhibition of IL-10 release [15]: 0.028 µM
- EC50, inhibition of IL-13 release [15]: 0.0062 µM
- EC50, inhibition of IL-17a release [15]: 0.0244 µM
- EC50, inhibition of IL-21 release [15]: 0.00256 µM
- EC50, inhibition of IL-22 release [15]: 0.00919 µM
- EC50, inhibition of IL-31 release [15]: 0.00251 µM
- EC50, inhibition of TNF-α release [15]: 0.0041 µM
- Fold diff to GBR830, IFNγ [15]: 4.6 fold
- Fold diff to GBR830, IL-2 [15]: 3.4 fold
- Fold diff to GBR830, IL-4 [15]: 15.8 fold
- Fold diff to GBR830, IL-5 [15]: 3 fold
- Fold diff to GBR830, IL-8 [15]: 6.3 fold
- Fold diff to GBR830, IL-10 [15]: 2.4 fold
- Fold diff to GBR830, IL-13 [15]: 11.2 fold
- Fold diff to GBR830, IL-21 [15]: 18.5 fold
- Fold diff to GBR830, IL-31 [15]: 11.9 fold
- Fold diff to GBR830, TNF-α [15]: 10.6 fold
- Fold diff to MAB10, maximum ADCC, activated T cells [16]: 1.31 fold
- Maximum killing (%), ADCC, activated T cells [16]: 45.6%

B2: GBR 830 (telazorlimab) (antibody, human IgG1, kappa)
heavy: not shown
light: EIVLTQSPATLSLSPGERATLSCRASSSVSYMHWYQQKPGQAPRPWIYATSNRATGIPARFSGSGSGTDYTLTISSLEPEDFAVYYCQQWSSNPWTFGQGTKVEIKRTVAAPSVFIFPPSDEQLKSGTASVVCLLNNFYPREAKVQWKVDNALQSGNSQESVTEQDSKDSTYSLSSTLTLSKADYEKHKVYACEVTHQGLSSPVTKSFNRGEC
notes: IgG1; also called Antibody 830; ISB830
- EC50 (read off the curve) [1]: ~0.0005 µM
- EC50 (read off the curve) [2]: ~0.0004 µM
- ADCC EC50, activated T cells (LDH release) [3]: 0.00013 µM
- Fold diff to MAB10, ADCC EC50, activated T cells [3]: 0.77 fold
- EC50 (read off the curve) [4]: ~0.0007 µM
- Kd [5]: 0.112 µM
- Kd [6]: 0.0062 µM
- Kd [7]: 4.69 µM
- Kd [8]: 3.41 µM
- Kd [9]: 3.22 µM
- Kd [10]: 0.365 µM
- Kd [11]: 7.26 µM
- Kd [12]: 0.33 µM
- Fold diff to MAB10, maximum ADCC, regulatory T cells [13]: 1.61 fold
- Maximum killing (%), ADCC, regulatory T cells [13]: 44.1%
- ADCC EC50, regulatory T cells (LDH release) [14]: 0.00225 µM
- Fold diff to MAB10, ADCC EC50, regulatory T cells [14]: 1.03 fold
- EC50, inhibition of IFNγ release [15]: 0.0667 µM
- EC50, inhibition of IL-2 release [15]: 0.00792 µM
- EC50, inhibition of IL-4 release [15]: 0.0448 µM
- EC50, inhibition of IL-5 release [15]: 0.0636 µM
- EC50, inhibition of IL-8 release [15]: 0.0583 µM
- EC50, inhibition of IL-10 release [15]: 0.0668 µM
- EC50, inhibition of IL-13 release [15]: 0.0696 µM
- EC50, inhibition of IL-21 release [15]: 0.0473 µM
- EC50, inhibition of IL-31 release [15]: 0.0299 µM
- EC50, inhibition of TNF-α release [15]: 0.0433 µM
- Fold diff to MAB10, maximum ADCC, activated T cells [16]: 1.14 fold
- Maximum killing (%), ADCC, activated T cells [16]: 39.6%
